We go through six molecules from paper PMC12867014, “Angiopoietin-like 3 monomers are abundant in human plasma but are unable to inhibit endothelial lipase” (JCI Insight, 2025).

Data set [1] has as its target ANGPTL3 of human serum (human (endogenous in serum)). Put plainly: SEC; Superdex 200 of pooled human serum, alone or spiked with conditioned media of recombinant wild-type or L124A human ANGPTL3 (L124A also run without serum); total ANGPTL3, trimeric ANGPTL3 and ANGPTL3/8 complexes in the fractions measured by dedicated immunoassays. Background: In gel filtration, larger molecules generally elute earlier.

Data set [2] deals with Strep-tagged mouse ANGPTL3 (angiopoietin-like 3), wild-type (mouse). Put plainly: mass photometry; Refeyn TwoMP, ambient temperature, DPBS; ANGPTL3 purified from conditioned media by Strep-TactinXT affinity chromatography.
Data set [3] shares this target. Put plainly: native gel or EMSA; blue NativePAGE (Bis-Tris 3-12% gels, run at room temperature) of conditioned media, immunoblot with an antibody against ANGPTL3. (In general: A gel shift assay detects complexes by their altered migration in electrophoresis.)
The target of data set [4] is endogenous ANGPTL3 secreted from Huh7 cells (human (endogenous in Huh7)). The data set is described as above.
Data set [5] concerns the target mouse ANGPTL3 S220A-R221A (cleavage-resistant) (mouse). The data set is described as follows: mass photometry; Refeyn TwoMP, ambient temperature, DPBS; ANGPTL3 purified from conditioned media by Strep-TactinXT affinity chromatography.
The target is the same in data set [6]. Put plainly: native gel or EMSA; blue NativePAGE (Bis-Tris 3-12% gels, run at room temperature) of conditioned media, immunoblot with an antibody against ANGPTL3.
Data set [7] is described as follows: Western blot of conditioned media. The note with it: glycan lost; control: wild type. (In general: Immunoblotting shows a protein as a band on a membrane.)
Data set [8] deals with the molecule itself. Put plainly: SEC; Superdex 200 of pooled human serum, alone or spiked with conditioned media of recombinant wild-type or L124A human ANGPTL3 (L124A also run without serum); total ANGPTL3, trimeric ANGPTL3 and ANGPTL3/8 complexes in the fractions measured by dedicated immunoassays.

Broadly, the stoichiometry N is a count of units in the complex or per binding partner.

On to “ANGPTL3 of human serum (natural protein)”, for which the stoichiometry N in data set [1] was 3. For “Strep-tagged mouse ANGPTL3 (angiopoietin-like 3), wild-type (natural protein)”, in data set [2], the percent present as homotrimer is 58% and the stoichiometry N turned out to be 3. The molecule also yielded a stoichiometry N in data set [3] of 3. In turn, “endogenous ANGPTL3 secreted from Huh7 cells (natural protein)” had a stoichiometry N in data set [4] of 3. Take “mouse ANGPTL3 S220A-R221A (cleavage-resistant) (natural protein)”: the stoichiometry N in data set [5] and in data set [6] was 3 throughout.

B1: ANGPTL3: M116A-S117A (protein)
parent chain: MHTIKLFLFVVPLVIASRVDPDLSSFDSAPSEPKSRFAMLDDVKILANGLLQLGHGLKDFVHKTKGQINDIFQKLNIFDQSFYDLSLRTNEIKEEEKELRRTTSTLQVKNEEVKNMSVELNSKLESLLEEKTALQHKVRALEEQLTNLILSPAGAQEHPEVTSLKSFVEQQDNSIRELLQSVEEQYKQLSQQHMQIKEIEKQLRKTGIQEPSENSLSSKSRAPRTTPPLQLNETENTEQDDLPADCSAVYNRGEHTSGVYTIKPRNSQGFNVYCDTQSGSPWTLIQHRKDGSQDFNETWENYEKGFGRLDGEFWLGLEKIYAIVQQSNYILRLELQDWKDSKHYVEYSFHLGSHETNYTLHVAEIAGNIPGALPEHTDLMFSTWNHRAKGQLYCPESYSGGWWWNDICGENNLNGKYNKPRTKSRPERRRGIYWRPQSRKLYAIKSSKMMLQPTT
On to B1, for which the expression_or_secretion entry in data set [7] is reported as “no change”.

B2: recombinant wild-type human ANGPTL3 (His-tagged) (natural protein, UniProt Q9Y5C1 17-460, looked up)
chain: SRIDQDNSSFDSLSPEPKSRFAMLDDVKILANGLLQLGHGLKDFVHKTKGQINDIFQKLNIFDQSFYDLSLQTSEIKEEEKELRRTTYKLQVKNEEVKNMSLELNSKLESLLEEKILLQQKVKYLEEQLTNLIQNQPETPEHPEVTSLKTFVEKQDNSIKDLLQTVEDQYKQLNQQHSQIKEIENQLRRTSIQEPTEISLSSKPRAPRTTPFLQLNEIRNVKHDGIPAECTTIYNRGEHTSGMYAIRPSNSQVFHVYCDVISGSPWTLIQHRIDGSQNFNETWENYKYGFGRLDGEFWLGLEKIYSIVKQSNYVLRIELEDWKDNKHYIEYSFYLGNHETNYTLHLVAITGNVPNAIPENKDLVFSTWDHKAKGHFNCPEGYSGGWWWHDECGENNLNGKYNKPRAKSKPERRRGLSWKSQNGRLYSIKSTKMLIHPTDSESFE
notes: angiopoietin-like 3 (ANGPTL3), human, secreted into the medium; also called WT human ANGPTL3; wild-type trimeric ANGPTL3; source: HEK293T, transient transfection (Fugene6), conditioned media
Turning to B2, the “stoichiometry N” value in data set [8] worked out at 3.
